2 molecules from patent US20180356429A1 (Genentech, published 2018) can be followed below.

Assay [1] deals with T1, native IL-13 in human serum (human, UniProt P35225 33-146).
T1 construct: Endogenous IL-13 in serum of healthy volunteers and of patients with asthma, IPF or atopic dermatitis; also called serum IL-13; endogenous IL-13
Kind of assay: pre-incubation of serum with excess (100 ug/mL) capture antibody for 1 h at room temperature, then IMPACT IL-13 sandwich assay.

For assay [2], the target named is T2, Recombinant human IL-13 (R&D Systems, MN, catalog no. 213-ILB/CF) (human, UniProt P35225 33-146).
T2 construct: also called recombinant IL-13
T2 sequence (P35225 other isoform, or with tags, fused parts or gaps): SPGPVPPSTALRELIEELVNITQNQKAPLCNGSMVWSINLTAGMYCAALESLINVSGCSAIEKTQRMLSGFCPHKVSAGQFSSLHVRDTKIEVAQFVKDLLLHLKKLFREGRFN
Kind of assay: sandwich pair screen, 100 pg/mL recombinant IL-13 against blank, binder is detection Ab 11H4; capture Ab 228B/C.

In assay [3] the target is T2, Recombinant human IL-13 (R&D Systems, …). Description: sandwich pair screen, 100 pg/mL recombinant IL-13 against blank, binder is detection Ab 11H4; capture Ab MILR1444A.

T1 sequence (P35225 other isoform, or with tags, fused parts or gaps): as above

B1: biotinylated lebrikizumab F(ab')2 (other)
VH: VTLRESGPALVKPTQTLTLTCTVSGFSLSAYSVNWIRQPPGKALEWLAMIWGDGKIVYNSALKSRLTISKDTSKNQVVLTMTNMDPVDTATYYCAGDGYYPYAMDNWGQGSLVTVSS
VL: DIVMTQSPDSLSVSLGERATINCRASKSVDSYGNSFMHWYQQKPGQPPKLLIYLASNLESGVPDRFSGSGSGTDFTLTISSLQAEDVAVYYCQQNNEDPRTFGGGTKVEIK
modifications: biotinylated (sites not given)
notes: F(ab')2 fragment of lebrikizumab, the capture reagent of the IMPACT IL-13 assay; also called capture antibody; first antibody
For B1, the binding result in assay [1] is “binds”.

B2: 11H4 (anti-IL-13 mu11H4) (antibody, IgG1, V domains shown)
VH: QVTLKESGPGILQPSQTLSLTCSFSGFSLSTSDMGVGWIRQPSGKGLEWLAHIWWDDVKRYNPALKSRLTISKDTSSSQVFLKIASVDTADTATYYCARIGTNYGYDGLFDYWGQGTTLTVSS
VL: DIVLTQSPASLAVSLGQRATISCRASQSVSTSSYSYMNWYQQTPGQPPKLLIKYASNLESGIPARFSGSGSGTDFTLNIHPVEEEDTATYYCQHSWEIPYTFGGGT
notes: Murine antibody; In the IMPACT IL-13 assay it was used as full-length IgG1 labelled with digoxigenin
With B2, the values for the positive/negative ratio in assay [2] and in assay [3] were 317 and 22800, respectively.
